Results: patent US20040214902A1
No end group written: not given here. *: point of attachment. 6FAM = O=C1OC2(c3ccc(O)cc3Oc3cc(O)ccc32)c2cc(C(=O)*)ccc21

Molecular target: 46-kDa soluble recombinant GST-fused Bcl-2 protein (Santa Cruz Biotechnology) (human) (UniProt P10415)
Test: fluorescence polarization saturation binding

Q: With 6FAM-NLWAAQRYGRELRRMSDEFVDSFKK as the binder, how does the Kd read?
A: 6.9 nM
